Key:
hESC line SA002 = assay: Substituting Activin A with Activin B for induction of endoderm, real-time PCR; format: cell-based, human; details: 100 ng/ml with 5 ng/ml bFGF, 5 days
Procedure: Undifferentiated hESC line SA002 were exposed to either activin A (100 ng/ml) or activin B (100 ng/ml) in the presence of 5 ng/ml bFGF for 5 days and analyzed for gene expression.
mRNA expression of Foxa2, Sox17, CXCR4, Sox7, CDX2, MT was measured by real-time PCR using the ABI/TaqMan method. In short, RNA was isolated from the cell cultures by using Qiagen's RNeasy system. cDNA was synthesized by using the ABI high capacity cDNA synthesis kit. RT-PCR was performed in a ABI 7500 by using TaqMan probe. The expression level was normalized to CREBBP expression.

hBS cells = assay: Sox17/Sox7 immunostaining of induced definitive endoderm; format: cell-based, human; details: after 4 days in Activin A
Text: We used Activin A, and Activin A in combination with Wnt3a and/or FGF2 to generate DE. After 4 to 5 days in Stage 1 the hBS cell colony differentiated and genetic markers for early DE were examined using quantitative real-time real time-PCR (Q-PCR). Activin A induced a strong wave of early endoderm at day 3 to 5, and was highlighted by high expression levels of Sox17, HNF3beta (HNF3b or HNF3b) and Cxcr4 expression (FIG. 4) and then reduced to near baseline levels (data not shown). […] Furthermore they up regulate early liver markers like AFP or AAT. At this early stage in differentiation and development, this indicates the presence of extraembryonic endoderm (E×E) in intrinsically differentiating colonies (FIGS. 5 and 10). The expression data were confirmed by co-staining of Sox17/Sox7, Sox17/Cxcr4, Sox17/Oct4, Sox7/HNF3b (data not shown). […] The changes of gene expression after Activin A treatment were associated to morphological changes and distinct differentiation pattern of the colonies (FIG. 2). After 4 to 5 days induction with Activin A containing medium cells gathered together and formed a ring of epithelial cells around the colony. […]
Activin A induces definitive endoderm detected by a combination of Sox17+/Sox7-, 80-90% of the total cells in a Activin A or Activin A/FGF2 treated culture are estimated to be Sox17 positive and negative for Sox7 (manual counting in microscope). […]

Molecule | extraembryonal (ExE) markers Sox7, CDX2 and MT compared to activin A (hESC line SA002) | mRNA expression of endodermal markers Foxa2, Sox17 and CXCR4 compared to activin A (hESC line SA002) | remaining cells Sox17 positive (hBS cells)
Activin B (protein, UniProt P09529 293-407, looked up) Inhibin beta B chain: GLECDGRTNLCCRQQFFIDFRLIGWNDWIIAPTGYYGNYCEGSCPAYLAGVPGSASSFHTAVVNQYRMRGLNPGTVNSCCIPTKLSTMSMLYFDDEYNIVKRDVPNMIVEECGCA | the same or lower | either the same or even higher | 
Activin A (protein, UniProt P08476 311-426, looked up, TGF-beta family member used at 100 ng/ml to induce definitive endoderm) Inhibin beta A chain: GLECDGKVNICCKKQFFVSFKDIGWNDWIIAPSGYHANYCEGECPSHIAGTSGSSLSFHSTVINHYRMRGHSPFANLKSCCVPTKLRPMSMLYYDDGQNIIKKDIQNMIVEECGCS |  |  | more than 70%
